For assay [1], the target named is T1, Met on human tumour cells (GTL-16, FaDu) (human, UniProt P08581 25-1390).
T1 construct: whole, on cells; Endogenous Met on 2% paraformaldehyde-fixed cells; also called Hepatocyte Growth Factor Receptor; HGFR
The experiment in a line: cell-binding assay (Lindmo), radiolabelled antibody on paraformaldehyde-fixed GTL-16 cells, double-reciprocal plot extrapolated.

Assay [2] deals with T1, Met on human tumour cells (GTL-16, FaDu). Put plainly: cell-binding assay (Lindmo), radiolabelled antibody on serial dilution of paraformaldehyde-fixed GTL-16 cells.
In a further assay the target is T2, Met (UniProt P08581 25-932, limits assumed).
T2 construct: Target of the stated Kd; The assay and the construct are not described; also called Hepatocyte Growth Factor Receptor; HGFR
T2 sequence (P08581 25-932 limits assumed): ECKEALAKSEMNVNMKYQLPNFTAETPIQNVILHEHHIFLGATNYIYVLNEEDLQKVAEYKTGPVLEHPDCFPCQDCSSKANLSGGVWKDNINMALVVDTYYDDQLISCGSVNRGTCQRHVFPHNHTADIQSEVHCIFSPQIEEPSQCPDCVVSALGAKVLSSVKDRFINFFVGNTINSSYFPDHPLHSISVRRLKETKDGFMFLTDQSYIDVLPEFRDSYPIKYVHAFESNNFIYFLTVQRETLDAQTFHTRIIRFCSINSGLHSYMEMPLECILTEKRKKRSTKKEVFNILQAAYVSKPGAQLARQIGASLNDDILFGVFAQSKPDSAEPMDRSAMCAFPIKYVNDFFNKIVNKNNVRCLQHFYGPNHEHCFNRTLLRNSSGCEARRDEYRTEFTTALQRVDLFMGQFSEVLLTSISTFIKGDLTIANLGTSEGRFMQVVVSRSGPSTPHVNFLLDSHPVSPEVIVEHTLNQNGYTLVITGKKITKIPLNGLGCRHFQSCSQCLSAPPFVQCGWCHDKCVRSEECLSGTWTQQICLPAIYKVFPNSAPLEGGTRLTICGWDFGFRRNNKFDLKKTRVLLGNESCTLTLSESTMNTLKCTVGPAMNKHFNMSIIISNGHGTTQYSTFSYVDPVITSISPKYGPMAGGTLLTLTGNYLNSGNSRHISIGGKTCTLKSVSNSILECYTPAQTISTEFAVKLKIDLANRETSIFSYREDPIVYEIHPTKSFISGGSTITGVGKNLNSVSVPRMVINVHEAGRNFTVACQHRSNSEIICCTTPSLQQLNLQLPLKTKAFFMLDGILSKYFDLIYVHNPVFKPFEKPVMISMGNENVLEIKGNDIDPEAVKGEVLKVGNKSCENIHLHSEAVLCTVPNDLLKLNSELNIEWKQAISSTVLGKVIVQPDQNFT

In assay [3] the target is T1, Met on human tumour cells (GTL-16, FaDu). Put plainly: immunocytochemistry on fixed cytospins and immunohistochemistry on frozen xenograft sections, streptavidin-alkaline phosphatase.

T1 sequence (P08581 25-1390): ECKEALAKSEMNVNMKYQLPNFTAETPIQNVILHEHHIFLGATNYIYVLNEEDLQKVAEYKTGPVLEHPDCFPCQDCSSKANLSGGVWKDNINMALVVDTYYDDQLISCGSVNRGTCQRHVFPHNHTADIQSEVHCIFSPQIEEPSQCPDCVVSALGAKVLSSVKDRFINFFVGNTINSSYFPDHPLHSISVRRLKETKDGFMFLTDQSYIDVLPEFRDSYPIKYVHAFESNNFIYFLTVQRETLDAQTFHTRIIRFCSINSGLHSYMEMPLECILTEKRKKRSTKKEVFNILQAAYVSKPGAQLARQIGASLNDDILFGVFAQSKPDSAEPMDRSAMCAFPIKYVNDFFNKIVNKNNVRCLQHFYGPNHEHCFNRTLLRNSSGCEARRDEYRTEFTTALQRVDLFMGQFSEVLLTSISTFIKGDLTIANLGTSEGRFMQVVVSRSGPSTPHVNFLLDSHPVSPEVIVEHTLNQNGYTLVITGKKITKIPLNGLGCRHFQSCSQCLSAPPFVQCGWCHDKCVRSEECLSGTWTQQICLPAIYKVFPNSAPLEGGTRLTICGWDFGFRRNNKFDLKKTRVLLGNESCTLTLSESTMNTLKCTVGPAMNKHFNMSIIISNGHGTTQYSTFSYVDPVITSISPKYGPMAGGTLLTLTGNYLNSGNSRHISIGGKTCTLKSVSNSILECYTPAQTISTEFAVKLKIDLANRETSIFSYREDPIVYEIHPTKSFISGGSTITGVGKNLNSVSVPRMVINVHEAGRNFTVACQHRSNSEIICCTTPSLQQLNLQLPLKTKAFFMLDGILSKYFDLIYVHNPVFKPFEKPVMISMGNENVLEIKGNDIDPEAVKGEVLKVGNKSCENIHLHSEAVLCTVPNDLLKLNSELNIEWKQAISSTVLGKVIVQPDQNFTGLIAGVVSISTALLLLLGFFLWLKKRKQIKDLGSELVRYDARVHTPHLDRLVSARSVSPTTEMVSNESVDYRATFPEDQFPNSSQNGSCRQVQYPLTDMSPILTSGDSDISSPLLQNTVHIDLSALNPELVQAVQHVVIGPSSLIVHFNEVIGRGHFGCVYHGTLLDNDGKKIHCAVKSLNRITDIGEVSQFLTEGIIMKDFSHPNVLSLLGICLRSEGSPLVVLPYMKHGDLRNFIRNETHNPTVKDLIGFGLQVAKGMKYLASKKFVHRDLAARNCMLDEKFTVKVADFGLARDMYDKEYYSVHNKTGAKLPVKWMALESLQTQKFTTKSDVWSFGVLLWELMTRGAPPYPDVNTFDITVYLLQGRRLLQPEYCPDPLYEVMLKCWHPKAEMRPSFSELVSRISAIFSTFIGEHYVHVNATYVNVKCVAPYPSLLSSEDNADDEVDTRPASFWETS

B1: 89Zr-N-sucDf-DN30 (antibody, mouse IgG2a, kappa, V domains shown)
VH: QVQLQQPGTELVKPGASVKLSCKASGYTFTSYWIHWVKQRPGQGLEWIGEINPSSGRTNYNEKFKNKVTVTVDKSSTTAYMQLSNLTSEDSAVYYCASRGYWGQGTTLTVSS
VL: DIVLTQSPASLAVSLGQRATISCKASQSVDYDGGSYMSWFQQRPGQPPKLLISAASNLESGIPARFSGSGSGTDFTLNIHPVEEEDVATYYCQQSYEDPLTFGAGTKLELKR
modifications: N-succinyl-desferal (N-sucDf) chelate carrying 89Zr coupled to lysine residues, approximately 1 N-sucDf moiety per DN30 molecule; positions not given
Consider B1, for which, in assay [1], the immunoreactivity at infinite antigen excess was > 95%. Moreover, in assay [2], the immunoreactivity at the highest cell concentration was > 70%.

B2: 131I-DN30 (antibody, mouse IgG2a, kappa, V domains shown)
VH: B1 VH
VL: B1 VL
modifications: radioiodinated with 131I (IODO-GEN method); positions not given
B2: in assay [1], the immunoreactivity at infinite antigen excess is > 95%. Also, in assay [2], the immunoreactivity at the highest cell concentration is > 70%.

B3: murine IgG2a MAb DN30 (antibody, V domains shown)
VH: B1 VH
VL: B1 VL
notes: Murine IgG2a from the hybridoma; also called anti-Met monoclonal antibody produced by the hybridoma cell line ICLC PD 05006
Consider B3, for which the Kd (as a rule, the constant that tells how readily two partners part at equilibrium) with Met amounted to 2.64 nM.

B4: biotinylated DN30 (antibody, mouse IgG2a, kappa, V domains shown)
VH: B1 VH
VL: B1 VL
modifications: biotinylated; positions not given
For B4, the binding result in assay [3] is recorded as “binds”.

These data come from patent publication EP2127683A1 (Metheresis Translational Research SA, dated 2009).
